# Article PMC9672126
# B1: Flag-BNIP3 wild-type (BCL2/adenovirus e1B 19 kDa protein interacting protein 3) [rat] / GFP-LC3 (microtubule-associated protein 1 light chain 3; plasmid pEGFP-C1-LC3B) [not stated] (parent)
# chain 1: MSQSGEENLQGSWVELHFSNGNGSSVPASVSIYNGDMEKILLDAQHESGRSSSKSSHCDSPPRSQTPQDTNRAEIDTHSFGEKNSTLSEEDYIERRREVESILKKNSDWIWDWSSRPENVPPKEFLFKHPKRTATLSMRNTSVMKKGGIFSADFLKVFLPSLLLSHLLAIGLGIYIGRRLTTSTSTF
# chain 2: not shown
# Variants of: B1
# Assay: co-IP (anti-Flag immunoprecipitation, western blot, quantified)
# Settings: with GFP-LC3 (microtubule-associated protein 1 light chain 3; plasmid pEGFP-C1-LC3B); HeLa cells, 48 h after transfection; n = 3; means ± SEM; read off a plot
row,Variant,ratio to parent (Folds of Control)
1,chain 1 S60A T66A,0.13
2,chain 1 S60E,0.85
3,chain 1 S60A,0.33
4,chain 1 S60D,0.85
